Experimental data as given in PMC9045261.

Target: OXAVL02 (OXA-1089)
Experiment: SEC-MALS; active SEC fractions dialyzed against PBS (Na2HPO4 10 mM, KH2PO4 1.8 mM, NaCl 137 mM, KCl 2.7 mM, pH 7.4); 100 uL at 0.5 to 1 mg/mL on Superdex 200 Increase 10/300; UV, MALS and refractive index detectors; monomer-dimer equilibrium

OXAVL02 (OXA-1089) (enzyme)
stoichiometry N: 2
